Measurements as given in patent publication US20240016952A1 (published 2024).

T1: cynomolgus monkey transferrin receptor 1 (cTfR1) (cynomolgus monkey (Macaca fascicularis), UniProt Q5RDH6 89-760 (Pongo abelii entry), limits assumed)
T1 construct: Recombinant cynomolgus TfR1; also called cyTfR1; cyno TfR1
T1 chain: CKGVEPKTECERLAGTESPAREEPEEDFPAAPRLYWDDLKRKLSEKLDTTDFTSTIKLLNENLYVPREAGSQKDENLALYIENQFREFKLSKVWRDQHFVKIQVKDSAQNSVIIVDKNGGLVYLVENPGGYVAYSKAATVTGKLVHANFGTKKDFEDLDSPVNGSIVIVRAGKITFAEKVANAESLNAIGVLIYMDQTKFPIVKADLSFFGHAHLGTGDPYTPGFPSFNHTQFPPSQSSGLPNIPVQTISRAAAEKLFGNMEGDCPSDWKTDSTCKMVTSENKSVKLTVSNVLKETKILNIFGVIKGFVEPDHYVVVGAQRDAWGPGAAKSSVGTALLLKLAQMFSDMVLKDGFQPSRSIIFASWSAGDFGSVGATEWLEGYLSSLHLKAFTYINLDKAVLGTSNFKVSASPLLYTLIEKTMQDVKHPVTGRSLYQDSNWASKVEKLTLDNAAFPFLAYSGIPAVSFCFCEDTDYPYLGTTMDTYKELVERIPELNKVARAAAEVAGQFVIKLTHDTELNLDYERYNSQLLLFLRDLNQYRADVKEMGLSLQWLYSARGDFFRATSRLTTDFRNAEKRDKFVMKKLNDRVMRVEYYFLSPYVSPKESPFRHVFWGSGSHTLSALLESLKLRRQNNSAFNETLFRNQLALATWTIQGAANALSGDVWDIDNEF


Assays:
[1] = molecular target: T1, cynomolgus monkey transferrin receptor …; test: average KD, antibody alone; method not given
[2] = molecular target: T1, cynomolgus monkey transferrin receptor …; test: ELISA, cyno TfR1, Fab after 9 days at 40 C
[3] = molecular target: T1, cynomolgus monkey transferrin receptor …; test: ELISA on plate-coated cyno TfR1, unconjugated Fab
[4] = molecular target: T2, TfR1 (species not stated; Biacore analyses of Table 14 and Table 16) (Homo sapiens (Human), UniProt P02786 89-760); test: Biacore kinetic analysis; parameters: unit not given here
T2 construct: also called target antigen

[5] = molecular target: T1, cynomolgus monkey transferrin receptor …; test: ELISA, cyno TfR1, Fab, day 0 of thermal stability test
[6] = molecular target: T3, human transferrin receptor 1 (hTfR1) (human, UniProt P02786 89-760); test: Carterra LSA SPR, IgG captured on anti-IgG chip, hTfR1 injected, 25 C, 1:1 fit
T3 construct: Recombinant human TfR1; also called huTfR1; Human TfR1

[7] = molecular target: T3, human transferrin receptor 1 (hTfR1); test: average KD, antibody alone; method not given
[8] = molecular target: T1, cynomolgus monkey transferrin receptor …; test: surface plasmon resonance

Row | Binder | Kd [1] [nM] | Binding affinity cyno TfR1 d 9 [2] [nM] | Fab binding affinity ELISA [3] [nM] | Binding affinity cyno TfR1 d 0 [5] [nM] | also measured
1 | 5-H12 mouse monoclonal anti-TfR1 antibody (antibody, V domains shown, Mouse mAb (IgG)) VH: QIQLQQSGPELVRPGASVKISCKASGYSFTDYCINWVNQRPGQGLEWIGWIYPGSGNTRYSERFKGKATLTVDTSSNTAYMQLSSLTSEDSAVYFCAREDYYPYHGMDYWGQGTSVTVSS VL: DIVLTQSPTSLAVSLGQRATISCRASESVDGYDNSFMHWYQQKPGQPPKLLIFRASNLESGIPARFSGSGSRTDFTLTINPVEAADVATYYCQQSSEDPWTFGGGTKLEIK | 12 | – | – | – | –
2 | 3-M12 mouse monoclonal anti-TfR1 antibody (antibody, V domains shown, Mouse mAb (IgG)) VH: DVQLQESGPGLVKPSQSLSLTCSVTGYSITSGYYWNWIRQFPGNKLEWMGYITFDGANNYNPSLKNRISITRDTSKNQFFLKLTSVTTEDTATYYCTRSSYDYDVLDYWGQGTTLTVSS VL: DIQMTQTTSSLSASLGDRVTISCRASQDISNFLNWYQQRPDGTVKLLIYYTSRLHSGVPSRFSGSGSGTDFSLTVSNLEQEDIATYFCQQGHTLPYTFGGGTKLEIK | 5.18 | – | – | – | –
3 | 3-A4 mouse monoclonal anti-TfR1 antibody (antibody, V domains shown, Mouse mAb (IgG); also called 3-A04) VH: EVQLQQSGAELVRPGASVKLSCTASGFNIKDDYMYWVKQRPEQGLEWIGWIDPENGDTEYASKFQDKATVTADTSSNTAYLQLSSLTSEDTAVYYCTLWLRRGLDYWGQGTSVTVSS VL: DIVMTQAAPSVPVTPGESVSISCRSSKSLLHSNGYTYLFWFLQRPGQSPQLLIYRMSNLASGVPDRFSGSGSGTAFTLRISRVEAEDVGVYYCMQHLEYPFTFGGGTKLEIK | 2.32 | – | – | – | –
4 | 15G11 (control anti-TfR1 antibody) (antibody, V domains shown) VH: QVQLQQPGAELVKPGASVKLSCKASGYTFTSYWMHWVKQRPGQGLEWIGEINPTNGRTNYIEKFKSKATLTVDKSSSTAYMQLSSLTSEDSAVYYCARGTRAYHYWGQGTSVTVSS VL: DIQMTQSPASLSVSVGETVTITCRASDNLYSNLAWYQQKQGKSPQLLVYDATNLADGVPSRFSGSGSGTQYSLKINSLQSEDFGTYYCQHFWGTPLTFGAGTKLELK | 1 | – | – | – | Kd [6]: 0.283 nM; Kd [7]: 0.8 nM

Further lines, with some results ahead:

Row | Kd [1] [nM] | Binding affinity cyno TfR1 d 9 [2] [nM] | Fab binding affinity ELISA [3] [nM] | Binding affinity cyno TfR1 d 0 [5] [nM] | Binder | also measured
5 | – | 248 | 398 | 398 | humanized anti-TfR Fab 3A4 VH3 (N54S)/Vk4 (Fab, V domains shown) VH: EVQLVQSGSELKKPGASVKVSCTASGFNIKDDYMYWVRQPPGKGLEWIGWIDPESGDTEYASKFQDRVTVTADTSTNTAYMELSSLRSEDTAVYYCTLWLRRGLDYWGQGTLVTVSS VL: DIVMTQSPLSLPVTPGEPASISCRSSKSLLHSNGYTYLFWFQQRPGQSPRLLIYRMSNLASGVPDRFSGSGSGTDFTLKISRVEAEDVGVYYCMQHLEYPFTFGGGTKVEIKR | koff [4]: 65.6
6 | – | 878 | 122 | 122 | humanized anti-TfR Fab 3A4 VH3/Vk4 (Fab, V domains shown) VH: EVQLVQSGSELKKPGASVKVSCTASGFNIKDDYMYWVRQPPGKGLEWIGWIDPENGDTEYASKFQDRVTVTADTSTNTAYMELSSLRSEDTAVYYCTLWLRRGLDYWGQGTLVTVSS VL: DIVMTQSPLSLPVTPGEPASISCRSSKSLLHSNGYTYLFWFQQRPGQSPRLLIYRMSNLASGVPDRFSGSGSGTDFTLKISRVEAEDVGVYYCMQHLEYPFTFGGGTKVEIKR | koff [4]: 115
7 | – | 16.4 | 2.2 | 2.2 | humanized anti-TfR Fab 3M12 VH4/Vk3 (Fab, V domains shown) VH: QVQLQESGPGLVKPSQTLSLTCTVTGYSITSGYYWNWIRQPPGKGLEWIGYITFDGANNYNPSLKNRVSISRDTSKNQFSLKLSSVTAEDTATYYCTRSSYDYDVLDYWGQGTTVTVSS VL: DIQMTQSPSSLSASVGDRVTITCRASQDISNFLNWYQQKPGQPVKLLIYYTSRLHSGVPSRFSGSGSGTDFTLTISSLQPEDFATYYCQQGHTLPYTFGQGTKLEIKR | Kd [8]: 5.18 nM; koff [8]: 0.000476 s⁻¹; kon [8]: 91900 M⁻¹ s⁻¹
